Data taken from publication PMC10700546, “Atg18 oligomer organization in assembled tubes and on lipid membrane scaffolds” (Nature Communications, 2023).
Residue numbers refer to the chain shown, from its start. In names and notes the source's numbering stands. Blank lines part the entries; values can stand above or below the binder they belong to.

Experiments:
[1] = target: T1, Autophagy-related protein 18 (Atg18), wildtype (Saccharomyces cerevisiae), P43601; assay: single-particle cryo-EM, 2D classification; 18 uM soluble Atg18 in high-salt buffer (50 mM TRIS, 500 mM NaCl, 10 mM KPO4, 1 mM DTT, pH 7.5); monomer and dimer classes; conditions: remark: other sources report otherwise
T1 chain: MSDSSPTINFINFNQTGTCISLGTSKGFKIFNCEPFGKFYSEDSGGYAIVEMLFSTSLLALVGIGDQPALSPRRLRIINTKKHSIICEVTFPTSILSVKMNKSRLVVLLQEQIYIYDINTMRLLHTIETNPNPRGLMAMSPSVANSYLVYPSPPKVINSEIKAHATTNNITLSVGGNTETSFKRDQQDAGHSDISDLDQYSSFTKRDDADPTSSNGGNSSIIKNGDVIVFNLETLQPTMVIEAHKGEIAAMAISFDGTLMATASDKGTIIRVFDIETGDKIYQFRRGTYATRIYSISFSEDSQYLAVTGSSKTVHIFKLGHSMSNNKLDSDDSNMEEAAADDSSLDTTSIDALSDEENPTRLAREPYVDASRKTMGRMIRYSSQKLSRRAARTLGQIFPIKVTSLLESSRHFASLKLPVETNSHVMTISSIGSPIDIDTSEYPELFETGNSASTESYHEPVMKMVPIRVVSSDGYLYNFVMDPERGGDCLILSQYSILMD

[2] = target: the molecule itself; assay: cryo-EM structure; helical reconstruction of Atg18 tubes; 20 uM tube solution in tube buffer (20 mM HEPES, 100 mM KAc, 1 mM DTT, pH 7.2); self-assembly into a helical lattice

stoichiometry N [1]: 2
B1: Autophagy-related protein 18 (Atg18), wildtype, P43601 1-500 (natural protein)
chain: T1 chain

B2: Atg18-P72A/R73A (natural protein, Saccharomyces cerevisiae, UniProt P43601 1-500, looked up)
chain: T1 chain with P72A, R73A
notes: Atg18, Saccharomyces cerevisiae, Uniprot ID P43601, with P72A and R73A; Same construct as the wild type apart from the two substitutions; also called Atg18-PR72AA; PR72AA; source: E. coli BL21(DE3), purified (Ni-NTA, TEV cleavage, second Ni-NTA, gel filtration); not shown: 6xHis, N-terminal, cleaved
binding result [2]: binds
